The values that follow come from patent US20240376455.

Holding throughout (assay): cleavage_in_vitro
Data set [1] has as its system T1, LPG10155 (Chryseobacterium geocarposphaerae).
T1 sequence: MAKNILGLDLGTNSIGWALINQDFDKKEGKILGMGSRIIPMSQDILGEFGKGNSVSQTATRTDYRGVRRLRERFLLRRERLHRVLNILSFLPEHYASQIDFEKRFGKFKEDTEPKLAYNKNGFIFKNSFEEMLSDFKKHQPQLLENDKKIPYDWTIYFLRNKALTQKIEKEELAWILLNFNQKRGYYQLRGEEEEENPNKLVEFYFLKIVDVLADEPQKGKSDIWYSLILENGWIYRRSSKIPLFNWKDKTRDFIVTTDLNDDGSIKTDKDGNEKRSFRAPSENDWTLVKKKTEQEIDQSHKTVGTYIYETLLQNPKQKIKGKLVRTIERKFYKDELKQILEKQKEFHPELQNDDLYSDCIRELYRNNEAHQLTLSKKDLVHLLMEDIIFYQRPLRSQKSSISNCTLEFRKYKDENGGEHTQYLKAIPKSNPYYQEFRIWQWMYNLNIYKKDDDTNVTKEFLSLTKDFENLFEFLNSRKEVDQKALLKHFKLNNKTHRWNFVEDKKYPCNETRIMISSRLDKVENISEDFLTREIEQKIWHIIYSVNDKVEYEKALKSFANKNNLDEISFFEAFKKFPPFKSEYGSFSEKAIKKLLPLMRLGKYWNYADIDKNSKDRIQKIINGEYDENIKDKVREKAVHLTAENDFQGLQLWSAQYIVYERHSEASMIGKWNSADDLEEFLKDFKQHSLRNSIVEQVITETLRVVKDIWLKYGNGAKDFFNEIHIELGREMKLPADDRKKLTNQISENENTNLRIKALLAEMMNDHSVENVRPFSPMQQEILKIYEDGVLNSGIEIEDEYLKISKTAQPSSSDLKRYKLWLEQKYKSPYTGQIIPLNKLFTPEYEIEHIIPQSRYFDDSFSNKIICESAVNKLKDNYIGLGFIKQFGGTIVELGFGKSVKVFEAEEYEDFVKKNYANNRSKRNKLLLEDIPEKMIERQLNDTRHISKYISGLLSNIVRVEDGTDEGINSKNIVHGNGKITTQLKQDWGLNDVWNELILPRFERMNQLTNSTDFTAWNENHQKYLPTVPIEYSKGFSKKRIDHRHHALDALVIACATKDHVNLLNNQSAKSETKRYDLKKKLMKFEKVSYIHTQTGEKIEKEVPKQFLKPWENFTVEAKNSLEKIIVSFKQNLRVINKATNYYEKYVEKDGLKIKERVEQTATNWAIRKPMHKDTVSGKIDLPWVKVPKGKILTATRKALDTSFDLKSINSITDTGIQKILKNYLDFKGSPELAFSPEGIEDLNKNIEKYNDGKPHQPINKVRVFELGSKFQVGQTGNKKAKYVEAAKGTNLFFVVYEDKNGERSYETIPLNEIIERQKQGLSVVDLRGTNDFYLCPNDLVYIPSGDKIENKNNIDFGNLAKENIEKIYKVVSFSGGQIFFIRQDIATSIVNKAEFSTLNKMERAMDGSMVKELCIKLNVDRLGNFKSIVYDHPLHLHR
The settings on record: PAM SEQ ID 82.

The subject of data set [2] is T2, LPG10150 (undetermined).
T2 sequence: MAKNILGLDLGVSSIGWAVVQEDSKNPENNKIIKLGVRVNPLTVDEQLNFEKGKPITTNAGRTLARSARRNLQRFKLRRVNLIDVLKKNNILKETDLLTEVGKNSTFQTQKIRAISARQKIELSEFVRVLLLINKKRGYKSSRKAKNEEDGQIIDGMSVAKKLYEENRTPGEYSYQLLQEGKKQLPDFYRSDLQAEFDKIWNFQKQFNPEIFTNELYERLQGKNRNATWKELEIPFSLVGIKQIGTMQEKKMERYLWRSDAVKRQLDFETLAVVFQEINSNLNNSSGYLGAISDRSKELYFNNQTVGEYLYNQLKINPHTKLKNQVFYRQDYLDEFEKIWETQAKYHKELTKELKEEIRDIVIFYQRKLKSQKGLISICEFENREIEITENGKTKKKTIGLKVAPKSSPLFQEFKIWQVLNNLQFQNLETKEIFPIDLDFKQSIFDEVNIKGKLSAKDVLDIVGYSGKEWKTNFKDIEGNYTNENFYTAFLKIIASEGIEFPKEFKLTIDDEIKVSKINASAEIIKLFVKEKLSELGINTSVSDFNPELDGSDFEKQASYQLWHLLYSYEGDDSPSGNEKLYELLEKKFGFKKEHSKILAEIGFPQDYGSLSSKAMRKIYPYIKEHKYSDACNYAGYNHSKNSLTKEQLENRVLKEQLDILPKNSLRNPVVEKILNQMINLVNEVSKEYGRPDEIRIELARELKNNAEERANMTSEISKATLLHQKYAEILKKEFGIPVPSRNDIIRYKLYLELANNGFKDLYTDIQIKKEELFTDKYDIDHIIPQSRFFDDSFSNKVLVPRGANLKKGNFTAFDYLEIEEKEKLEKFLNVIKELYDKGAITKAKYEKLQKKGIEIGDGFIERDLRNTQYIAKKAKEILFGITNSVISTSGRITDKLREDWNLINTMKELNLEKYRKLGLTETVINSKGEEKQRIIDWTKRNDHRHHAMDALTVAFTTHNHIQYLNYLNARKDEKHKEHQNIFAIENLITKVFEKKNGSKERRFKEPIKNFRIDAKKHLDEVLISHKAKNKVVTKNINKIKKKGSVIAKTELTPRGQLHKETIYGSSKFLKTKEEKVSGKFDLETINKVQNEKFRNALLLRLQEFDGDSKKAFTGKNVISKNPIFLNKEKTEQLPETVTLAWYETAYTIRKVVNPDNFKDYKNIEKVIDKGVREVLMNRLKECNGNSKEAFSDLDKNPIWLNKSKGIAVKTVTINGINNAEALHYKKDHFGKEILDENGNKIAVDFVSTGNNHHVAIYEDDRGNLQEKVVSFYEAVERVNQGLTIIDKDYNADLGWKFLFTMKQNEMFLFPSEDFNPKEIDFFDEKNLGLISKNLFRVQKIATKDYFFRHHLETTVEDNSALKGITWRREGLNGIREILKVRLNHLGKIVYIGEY
The conditions noted are these: PAM SEQ ID 81.

Data set [3] deals with T3, LPG10160 (Chryseobacterium ureilyticum).
T3 sequence: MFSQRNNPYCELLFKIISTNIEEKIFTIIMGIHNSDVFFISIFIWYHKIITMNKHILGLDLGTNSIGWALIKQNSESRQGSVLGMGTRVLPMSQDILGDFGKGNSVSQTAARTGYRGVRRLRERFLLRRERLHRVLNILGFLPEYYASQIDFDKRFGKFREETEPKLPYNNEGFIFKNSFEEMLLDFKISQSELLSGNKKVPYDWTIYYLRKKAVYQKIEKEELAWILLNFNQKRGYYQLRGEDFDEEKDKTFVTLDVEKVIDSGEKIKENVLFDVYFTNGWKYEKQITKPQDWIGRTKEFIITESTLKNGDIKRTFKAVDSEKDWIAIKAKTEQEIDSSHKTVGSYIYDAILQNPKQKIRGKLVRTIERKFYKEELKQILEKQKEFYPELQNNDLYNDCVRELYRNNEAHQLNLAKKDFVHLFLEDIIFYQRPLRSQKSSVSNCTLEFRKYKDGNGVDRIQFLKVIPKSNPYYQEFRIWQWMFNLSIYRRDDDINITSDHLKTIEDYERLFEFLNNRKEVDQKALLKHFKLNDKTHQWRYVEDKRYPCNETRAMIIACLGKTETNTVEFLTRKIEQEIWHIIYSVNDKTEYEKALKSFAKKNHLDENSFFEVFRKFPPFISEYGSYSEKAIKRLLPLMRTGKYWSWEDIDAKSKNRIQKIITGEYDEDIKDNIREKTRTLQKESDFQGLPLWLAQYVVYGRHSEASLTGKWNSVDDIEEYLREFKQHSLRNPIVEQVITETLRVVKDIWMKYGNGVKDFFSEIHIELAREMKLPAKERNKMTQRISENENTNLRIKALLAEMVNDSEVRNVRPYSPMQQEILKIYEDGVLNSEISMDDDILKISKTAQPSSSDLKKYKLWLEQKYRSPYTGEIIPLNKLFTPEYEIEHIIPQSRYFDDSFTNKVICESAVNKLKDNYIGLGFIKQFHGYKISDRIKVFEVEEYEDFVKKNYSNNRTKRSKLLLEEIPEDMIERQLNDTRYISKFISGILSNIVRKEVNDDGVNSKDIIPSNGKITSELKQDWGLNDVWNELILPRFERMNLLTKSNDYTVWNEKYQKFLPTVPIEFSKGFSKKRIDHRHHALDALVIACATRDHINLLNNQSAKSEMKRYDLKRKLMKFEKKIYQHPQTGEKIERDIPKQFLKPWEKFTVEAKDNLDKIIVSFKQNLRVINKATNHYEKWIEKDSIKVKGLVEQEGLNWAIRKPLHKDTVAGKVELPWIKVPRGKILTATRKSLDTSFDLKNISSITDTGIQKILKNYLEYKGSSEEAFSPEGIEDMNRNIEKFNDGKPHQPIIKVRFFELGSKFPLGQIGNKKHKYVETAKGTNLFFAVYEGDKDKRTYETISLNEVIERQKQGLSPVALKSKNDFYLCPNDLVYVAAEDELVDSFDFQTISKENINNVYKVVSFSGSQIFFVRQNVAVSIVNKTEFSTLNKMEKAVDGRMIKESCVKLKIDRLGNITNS
The settings on record: PAM SEQ ID 84; 35% pure protein.

“GUUGUGAAUUGCUUUAAAGAAAGCAAUUCACAAUAAGGAUUAUUCCGUUGUGAAAACAUCUAGCGCCUCGUCUAUCUACGGGGCAUUUU / GGACAGCAGCTTCCTATATCTCGTACAGAAATTC / GAATTTCTGTACGAGATATAGGAAGCTGCTGTCC [LPG10155 sgRNA L1 ; Library 1 target AGAAATTC]”: in data set [1], the activity (% target strand cleaved) stood at 32.7.

Regarding “GUUGUGAAUUGCUUUAAAGAAAGCAAUUCACAAUAAGGAUUAUUCCGUUGUGAAAACAUCUAGCGCCUCGUCUAUCUACGGGGCAUUUU / GATATAGACGTTGTGGCTGTTGTAGTAGGACTTC / GAAGTCCTACTACAACAGCCACAACGTCTATATC [LPG10150 sgRNA L2 ; Library 2 target AGGACTTC]”, the activity (% target strand cleaved) in data set [2] was 31.8.

The sequence “GUUGUGAAUUGCUUUAAAGAAAGCAAUUCACAAUAAGGAUUAUUCCGUUGUGAAAACAUCUAGCGCCUCGUCUAUCUACGGGGCAUUUU / GATATAGACGTTGTGGCTGTTGTAGTAGAAATTC / GAATTTCTACTACAACAGCCACAACGTCTATATC [LPG10155 sgRNA L2 ; Library 2 target AGAAATTC]” registered an activity (% target strand cleaved) in data set [1] of 7.6.

Take “GUUGUGAUUUGCUUUAAAGAAAGCAAUUCACAAUAAGGAUUAUUCCGUUGUGAAAACAUUUAAGCCCCCUCGUCUUACAAUACGGGGAUUU / GATATAGACGTTGTGGCTGTTGTAGTAAATATTC / GAATATTTACTACAACAGCCACAACGTCTATATC [LPG10160 sgRNA L2 ; Library 2 target AAATATTC]”: the activity (% target strand cleaved) in data set [3] was 0.

For the sequence “GUUGUGAAUUGCUUUAAAGAAAGCAAUUCACAAUAAGGAUUAUUCCGUUGUGAAAACAUCUAGCGCCUCGUCUAUCUACGGGGCAUUUU / GGACAGCAGCTTCCTATATCTCGTACAGGACCTC / GAGGTCCTGTACGAGATATAGGAAGCTGCTGTCC [LPG10150 sgRNA L1 ; Library 1 target AGGACCTC]”, the activity (% target strand cleaved) in data set [2] was 1.4.

For “GUUGUGAUUUGCUUUAAAGAAAGCAAUUCACAAUAAGGAUUAUUCCGUUGUGAAAACAUUUAAGCCCCCUCGUCUUACAAUACGGGGAUUU / GGACAGCAGCTTCCTATATCTCGTACAAATATTC / GAATATTTGTACGAGATATAGGAAGCTGCTGTCC [LPG10160 sgRNA L1 ; Library 1 target AAATATTC]”, the activity (% target strand cleaved) in data set [3] was found to be 0.
